Values quoted from earlier work, collected in paper PMC9741594.

Biological target: T1, Internalin A (on whole Listeria monocytogenes cells) (Listeria monocytogenes (strain not given in the material)) (UniProt P0DJM0)
T1 sequence: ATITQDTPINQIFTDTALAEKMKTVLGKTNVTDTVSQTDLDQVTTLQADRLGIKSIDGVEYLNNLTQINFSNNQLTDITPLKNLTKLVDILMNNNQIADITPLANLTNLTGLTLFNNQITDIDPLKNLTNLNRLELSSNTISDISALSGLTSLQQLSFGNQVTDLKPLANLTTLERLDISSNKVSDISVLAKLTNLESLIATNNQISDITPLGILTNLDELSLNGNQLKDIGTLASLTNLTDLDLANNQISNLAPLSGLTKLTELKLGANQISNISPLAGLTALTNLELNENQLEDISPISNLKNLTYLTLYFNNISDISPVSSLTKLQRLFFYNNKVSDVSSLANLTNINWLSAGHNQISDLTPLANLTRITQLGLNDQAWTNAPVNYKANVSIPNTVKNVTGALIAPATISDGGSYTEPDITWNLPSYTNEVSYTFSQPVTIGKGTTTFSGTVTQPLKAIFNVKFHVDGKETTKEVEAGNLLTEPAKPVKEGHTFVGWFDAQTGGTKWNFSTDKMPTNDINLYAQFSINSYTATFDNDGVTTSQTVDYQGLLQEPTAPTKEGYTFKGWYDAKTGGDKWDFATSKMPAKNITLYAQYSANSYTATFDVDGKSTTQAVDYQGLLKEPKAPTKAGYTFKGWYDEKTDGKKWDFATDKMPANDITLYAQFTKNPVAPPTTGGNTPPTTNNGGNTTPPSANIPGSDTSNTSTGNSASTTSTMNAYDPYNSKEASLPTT
Experiment: not stated (cited)
Conditions: printed as KD = 103 CFU/mL, read as 10^3; whole-cell units; 5' amine (immobilized by carbodiimide chemistry on ALG-thiomer/Pt); 5' thiol version also made; PBS, whole L. monocytogenes cells, 15 min capture at pH 7 (extended brush), EIS at pH 3 (collapsed), room temperature; also chicken broth

For “ATCCATGGGGCGGAGATGAGGGGGAGGAGGGCGGGTACCCGGTTGAT [A8 anti-Internalin A aptamer]”, the Kd is given as 1000 CFU/mL.
